{"source": "patent US6468985B1", "about": "“Retinoblastoma protein-interacting zinc finger proteins” (The Burnham Institute, priority 1994, dated 2002)", "molecules": {"B1": {"name": "RIZ (1-575): fragment of RIZ from amino acid position 1-575 (protein)", "chain": "MHQNTESVAATETLAEVPEHVLRGLPEEVRLFPSAVDKTRIGVWATKPILKGKKFGPFVGDKKKRSQVRNNVYMWEVYYPNLGWMCIDATDPEKGNWLRYVNWACSGEEQNLFPLEINRAIYYKTLKPIAPGEELLVWYNGEDNPEIAAAIEEERASARSKRSSPKSRRGKKKSHENKNKGIRTHPTQLKASELDSTFANMRGSAEGPKEEDERPLASAPEQPAPLPEVGNQDAVPQVAIPLPACEPQPEVDGKQEVTDCEVNDVEEEELEEEEELEEEEEEELGEDGVEEADMPNESSAKEPEIRCEEKPEDLLEEPQSMSNEAREDSPDVTPPPHTPRAREEANGDVLETFMFPCQHCERKFATKQGLERHMHIHISTINHAFKCKYCGKRFGTQINRRRHERRHETGLKRRPSMTLQSSEDPDDGKGENVTSKDESSPPQLGQDCLILNSEKTSQEVLNSSFVEENGEVKELHPCKYCKKVFGTHTNMRRHQRRVHERHLIPKGVRRKGGLLEEPQPPAEQAPPSQNVYVPSTEPEEEGETDDVYIMDISSNISENLNYYIDGKIQTNSSTS"}, "B2": {"name": "GST-RIZ (215-462): purified rat RIZ (a.a. position 215-462) fused C-terminal to glutathionine S-transferase (protein)", "chain": "PLASAPEQPAPLPEVGNQDAVPQVAIPLPACEPQPEVDGKQEVTDCEVNDVEEEELEEEEELEEEEEEELGEDGVEEADMPNESSAKEPEIRCEEKPEDLLEEPQSMSNEAREDSPDVTPPPHTPRAREEANGDVLETFMFPCQHCERKFATKQGLERHMHIHISTINHAFKCKYCGKRFGTQINRRRHERRHETGLKRRPSMTLQSSEDPDDGKGENVTSKDESSPPQLGQDCLILNSEKTSQEVLN", "modifications": "left off: a dimerising Fc or GST", "notes": "purified rat RIZ (a.a. position 215-462) fused C-terminal to glutathionine S-transferase"}}, "key": {"[1]": {"system": "SK-MEL-23 melanoma cell line", "assay": "RIZ D283 allele transcript expression after demethylating agent", "type": "cell-based, human", "details": "3 uM, cultured 3 to 6 days", "method": "RNA samples from the 20 heterozygous melanoma cell lines were sequenced to determine if both alleles were transcribed in the cell or if only one allele was transcribed (ie. monoallelic expression). Sequencing was performed on DNA products produced by reverse transcription-PCR (RT-PCR) amplification using specific RIZ primers. RT-PCR amplification was performed according to the manufacturer's instructions (GeneAmp RNA PCR kit; Perkin Elmer). A 640 bp fragment encoding RIZ exons 5-7 was obtained from transcription of 1 μg of total RNA using the SSO 82 primer (SEQ ID NO: 93) and PCR amplification using the SSO 24 primer (5′[…]3′; SEQ ID NO: 106) and the SSO 82 primer (SEQ ID NO: 93). The amplified fragment was gel purified and sequenced using primer SSO 82 and a CircumVent™ Thermal Cycle DNA Sequencing kit (New England Biolabs; Beverly Mass.). The sequencing products were analyzed on a […] sequencing gel.\nThe SK-MEL-23 melanoma cell line was cultured for 3 to 6 days with 3 uM of the demethylating agent 5-azacytidine."}, "56 kD fragment of Rb": {"target": "T1, 56 kD fragment of Rb (Homo sapiens, UniProt P06400)", "T1 construct": "p56 Rb: 56 kD fragment of Rb from a.a. position 379-928; made in house", "T1 sequence (P06400 379-928)": "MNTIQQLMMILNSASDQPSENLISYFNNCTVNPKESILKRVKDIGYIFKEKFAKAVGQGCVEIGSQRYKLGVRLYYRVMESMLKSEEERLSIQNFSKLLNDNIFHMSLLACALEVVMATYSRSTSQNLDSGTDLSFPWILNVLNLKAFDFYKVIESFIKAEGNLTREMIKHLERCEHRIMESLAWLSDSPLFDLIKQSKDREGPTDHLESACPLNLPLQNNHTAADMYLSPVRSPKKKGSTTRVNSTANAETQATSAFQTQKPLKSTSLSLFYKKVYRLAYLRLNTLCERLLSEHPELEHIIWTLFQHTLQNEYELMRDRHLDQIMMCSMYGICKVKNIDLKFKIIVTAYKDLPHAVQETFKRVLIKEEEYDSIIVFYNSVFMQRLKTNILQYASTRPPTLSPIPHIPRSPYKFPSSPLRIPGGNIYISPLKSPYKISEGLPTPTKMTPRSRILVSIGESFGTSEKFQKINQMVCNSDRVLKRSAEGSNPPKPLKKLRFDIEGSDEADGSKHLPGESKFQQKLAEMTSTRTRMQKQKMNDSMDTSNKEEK", "assay": "binding of 35S-labeled RIZ fragments to 56 kD Rb, immunoprecipitation with anti-Rb antiserum", "method": "To characterize the interaction between RIZ and Rb, a ^35S-labeled fragment of rat RIZ from amino acid position 245-883 (RIZ (245-883)) was produced by subcloning the 1.9 kb insert of clone 7.1 into PBKS+ (Stratagene) to yield plasmid pBKS+7.1. […] The larger size obtained by SDS-PAGE is likely due to anomalous mobility of the RIZ fragment on the gel.\nA 56 kD fragment of Rb produced by bacterial expression from p56Rb plasmid, as described previously (Huang et al., supra, 1991), was tested for binding to radiolabeled RIZ (245-883). Binding was detected by immunoprecipitation with an anti-Rb antiserum and Protein A-Sepharosew™ (Huang et al., supra, 1990), which is incorporated herein by reference; and Huang et al., supra, 1991) followed by SDS-PAGE and autoradiography (see Harlow and Lane, supra, 1988). The rabbit anti-Rb antiserum was produced to purified p56Rb using previously described methods (see Harlow and Lane, supra, 1988).\nThe amount of binding of RIZ by Rb in the immunoprecipitation reaction was dependent on the concentration of Rb added. Full binding of ^35S-labeled RIZ (245-883) was achieved by 10 nM Rb but not 3.3 nM Rb (not shown). […]\nBinding between labeled RIZ (1-575) and the glycine mutant with 33 nM Rb was evaluated by immunoprecipitation with anti-Rb antiserum followed by SDS-PAGE and autoradiography."}, "[2]": {"target": "T2, Rb from HT1080 cell extract (Homo sapiens, UniProt P06400)", "T2 construct": "endogenous in cells; host or cells: HT1080 cells (lysate)", "T2 sequence (P06400 1-928)": "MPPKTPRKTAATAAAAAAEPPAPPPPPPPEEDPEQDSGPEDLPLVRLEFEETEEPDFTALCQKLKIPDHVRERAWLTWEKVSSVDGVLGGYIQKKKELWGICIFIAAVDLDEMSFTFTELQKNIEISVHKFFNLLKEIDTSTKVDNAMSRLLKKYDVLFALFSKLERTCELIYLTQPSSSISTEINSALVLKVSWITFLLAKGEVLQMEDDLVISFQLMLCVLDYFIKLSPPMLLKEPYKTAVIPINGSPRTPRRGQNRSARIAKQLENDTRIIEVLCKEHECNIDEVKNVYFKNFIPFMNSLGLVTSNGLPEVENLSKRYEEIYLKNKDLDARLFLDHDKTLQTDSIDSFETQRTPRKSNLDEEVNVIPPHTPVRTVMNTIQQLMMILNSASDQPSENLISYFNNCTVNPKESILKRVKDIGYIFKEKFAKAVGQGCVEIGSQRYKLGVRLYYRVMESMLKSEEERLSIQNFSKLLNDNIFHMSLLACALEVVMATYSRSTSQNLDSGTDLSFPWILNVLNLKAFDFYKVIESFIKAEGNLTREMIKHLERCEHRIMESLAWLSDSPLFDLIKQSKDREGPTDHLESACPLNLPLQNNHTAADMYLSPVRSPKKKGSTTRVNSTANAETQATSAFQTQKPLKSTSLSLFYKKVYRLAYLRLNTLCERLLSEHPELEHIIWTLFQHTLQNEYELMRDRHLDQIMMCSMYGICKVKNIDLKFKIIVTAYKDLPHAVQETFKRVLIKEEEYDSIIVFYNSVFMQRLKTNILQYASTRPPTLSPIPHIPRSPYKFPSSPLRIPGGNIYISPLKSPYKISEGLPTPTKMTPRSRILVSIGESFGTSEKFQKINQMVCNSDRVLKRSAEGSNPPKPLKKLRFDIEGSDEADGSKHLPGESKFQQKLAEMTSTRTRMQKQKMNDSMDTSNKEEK", "assay": "GST-RIZ (215-462) glutathione-agarose pull-down of Rb from cell extract, anti-Rb immunoblot", "type": "binding", "details": "4 μg GST-RIZ (215-462)", "method": "Rat RIZ was tested for binding to Rb in HT1080 cells (ATCC #ICCL 121). The cells were grown in DMEM supplemented with […]. Cells were lysed in ELB buffer (50 mM HEPES, pH 7.5, 250 mM NaCl, 0.1% NP-40) supplemented with 5 mM EDTA, 50 mM NaF, 1 mM Na orthovanadate, 1 mM of DTT, aprotinin, leupeptin, and PMSF. The lysate was cleared of cell debris by centrifugation at 12,000 rpm for 10 min in a microfuge.\nBinding between 4 μg GST-RIZ (215-462) and Rb from HT1080 cell extract was evaluated by first mixing the two, then binding GST-RIZ and any associated Rb to glutathione-agarose beads. The beads were washed in binding buffer and the bound complexes were eluted by boiling in SDS buffer and analyzed by immunoblotting with anti-Rb antiserum. Immunoblotting was performed by standard techniques (see, for example, Harlow and Lane, supra, 1988)."}, "full length RIZ": {"target": "T3, full length RIZ (Rattus norvegicus, UniProt Q63755)", "T3 construct": "made in house; host or cells: in vitro translation (35S label; method not repeated for this protein)", "T3 sequence (Q63755 whole entry)": "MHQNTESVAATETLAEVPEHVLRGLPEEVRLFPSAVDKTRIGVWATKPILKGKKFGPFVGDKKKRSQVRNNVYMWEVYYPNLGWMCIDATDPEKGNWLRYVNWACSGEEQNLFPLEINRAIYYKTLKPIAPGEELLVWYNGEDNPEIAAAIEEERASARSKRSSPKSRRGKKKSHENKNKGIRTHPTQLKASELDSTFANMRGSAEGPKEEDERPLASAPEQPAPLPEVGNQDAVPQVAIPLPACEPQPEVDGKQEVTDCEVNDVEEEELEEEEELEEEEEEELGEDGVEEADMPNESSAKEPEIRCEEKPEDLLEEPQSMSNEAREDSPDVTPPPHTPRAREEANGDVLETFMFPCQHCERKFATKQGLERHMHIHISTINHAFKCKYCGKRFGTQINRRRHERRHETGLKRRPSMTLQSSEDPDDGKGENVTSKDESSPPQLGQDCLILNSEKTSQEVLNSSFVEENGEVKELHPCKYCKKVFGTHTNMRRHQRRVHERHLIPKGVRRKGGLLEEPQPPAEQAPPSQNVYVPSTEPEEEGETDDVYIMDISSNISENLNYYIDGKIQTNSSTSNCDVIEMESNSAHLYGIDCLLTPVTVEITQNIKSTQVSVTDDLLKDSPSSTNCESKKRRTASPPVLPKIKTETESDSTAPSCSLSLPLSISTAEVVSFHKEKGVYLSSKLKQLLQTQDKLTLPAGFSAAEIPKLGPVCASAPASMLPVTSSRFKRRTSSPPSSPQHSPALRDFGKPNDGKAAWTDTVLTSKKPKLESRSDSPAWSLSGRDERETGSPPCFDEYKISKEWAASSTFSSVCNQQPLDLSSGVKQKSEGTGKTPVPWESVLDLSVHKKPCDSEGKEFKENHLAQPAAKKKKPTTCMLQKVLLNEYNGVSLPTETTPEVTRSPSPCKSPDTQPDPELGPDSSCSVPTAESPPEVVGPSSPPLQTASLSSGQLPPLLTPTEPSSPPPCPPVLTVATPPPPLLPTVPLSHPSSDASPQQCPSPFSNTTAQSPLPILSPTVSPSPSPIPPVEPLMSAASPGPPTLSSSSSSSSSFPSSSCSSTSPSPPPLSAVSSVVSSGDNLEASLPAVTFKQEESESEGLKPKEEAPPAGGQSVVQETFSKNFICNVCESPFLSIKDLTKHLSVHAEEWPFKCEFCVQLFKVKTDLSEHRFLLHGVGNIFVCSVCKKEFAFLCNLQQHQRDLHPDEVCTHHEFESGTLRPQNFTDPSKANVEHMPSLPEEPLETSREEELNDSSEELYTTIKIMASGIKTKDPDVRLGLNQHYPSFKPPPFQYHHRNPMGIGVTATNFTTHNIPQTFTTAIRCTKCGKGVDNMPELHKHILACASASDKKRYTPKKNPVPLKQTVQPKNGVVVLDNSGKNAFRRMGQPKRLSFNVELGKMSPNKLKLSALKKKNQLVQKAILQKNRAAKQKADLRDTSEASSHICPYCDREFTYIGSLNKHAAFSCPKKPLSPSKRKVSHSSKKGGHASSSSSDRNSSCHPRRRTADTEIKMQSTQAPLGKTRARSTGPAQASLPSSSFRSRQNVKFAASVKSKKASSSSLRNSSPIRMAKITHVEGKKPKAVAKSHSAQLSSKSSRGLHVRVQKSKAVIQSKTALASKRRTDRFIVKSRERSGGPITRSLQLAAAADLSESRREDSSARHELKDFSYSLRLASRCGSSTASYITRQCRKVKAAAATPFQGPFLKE", "assay": "RIZ homo-oligomer formation", "type": "binding"}}}
{"molecule": "Nc1ncn([C@@H]2O[C@H](CO)[C@@H](O)[C@H]2O)c(=O)n1", "note": "[5-azacytidine]", "values": [{"measurement": "effect on reduced expression of RIZ D283 transcripts", "setting": "[1]", "result": "unaffected"}]}
{"molecule": "B1", "values": [{"measurement": "binding to Rb in vitro (FIG. 4)", "setting": "56 kD fragment of Rb", "result": "specifically binds"}]}
{"molecule": "B2", "values": [{"measurement": "binding to Rb from HT1080 cell extract", "setting": "[2]", "result": "bound to the fastest migrating forms of Rb"}, {"measurement": "binding to 35S-labeled full length RIZ (homo-oligomer formation)", "setting": "full length RIZ", "result": "lack of binding"}]}
